We go through one molecule from patent US20230220098A1, “THERAPEUTIC DRUG FOR POLYCYTHEMIA” (PERSEUS PROTEOMICS INC., priority 2019, published 2023).

For one assay, the target named is mouse TfR (Mus musculus, UniProt Q62351). Put plainly: Cross-reactivity of TfR436 antibody with mouse TfR. The format is binding.
The test system of a further assay is erythroblast cells. The experiment in a line: Growth of normal erythroblast cells derived from CD34-positive cells. The format is cell-based. The following applies: FIG. 4. The method, then: Frozen CD34-positive cells (POIETICS) were thawed at 37° C., and were then suspended in IMDM (GIBCO)+30% FBS (Sigma-Aldrich) and 100 U/ml DNase (QIAGEN), and thereafter, the cells were […] according to the instructions of the manufacturer. Thereafter, the cells were adjusted to 5×10^4 cells/ml with a culture medium prepared by adding 2-ME (50 μmol/L) (GIBCO), hIL-3 (100 U/ml) (Milteny biotec), hEPO (4 U/ml) (Roche), and hSCF (50 ng/ml) (Peprotech) to an SF-03 medium (EIDIA Co., Ltd.). The resulting cells were dispensed into a 24-well plate in an amount of 1 ml/well, and were then cultured at 37° C. in a 5% CO2 incubator. Seven days later, the cells were seeded into a 96-well plate, and the antibody was then added thereto in an amount of 0.15 ng/mL to 10 μg/mL, followed by culturing the mixture. A well without addition of the antibody was used as a control. Ninety six hours later, each well was fully stirred by pipetting, and 150 μl of the cell lysate was transferred into a V-bottom plate. Then, 20 μI of the transferred cell lysate was absorbed by FACS Calibur, and the number of cells was then counted. The value obtained by multiplying the obtained cell number by 10 was set to be the number of cells per well, and the growth percentage of the cells at each concentration of the antibody was then calculated, while the mean value of the control was set to be 100%.

The target in assay [1] is T1, soluble wild-type TfR (sTfR) and TfR mutant fragments (MF1 to MF7) (Homo sapiens, UniProt P02786).
T1 construct: A human TfR extracellular domain (the amino acids at positions 89 to 760); made in house; host or cells: Expi293 cells
The experiment in a line: ELISA reactivity with soluble wild-type TfR and TfR mutant fragments (binding site identification). The following applies: suggested from mutant fragment reactivity. The method, then: (§1) A neomycin resistance gene and a DHFR gene were incorporated into the expression vector pCAGGS (Non-Patent Document 2: Niwa et al. 1991), and thereafter, the synthesized genes were each inserted into the multicloning site of the obtained expression vector, so as to produce a pCAGGS-Neo-DHFR-sTFR-myc-his expression plasmid. Using Expifectamine (Invitrogen), the Expi293 cells (Invitrogen) were transfected with the above-described plasmid, and were then cultured at 37° C. in 8% CO2 at 135 rpm for 5 days. Thereafter, a culture supernatant was recovered by centrifugation. A HisTrapHP (GE Healthcare) column was connected with AKTA prime (GE Healthcare), and sTfR or MF1 to MF7 were then purified using 20 mM Imidazole/DPBS as a binding buffer and 500 mM Imidazole/DPBS as an elution buffer. The eluted protein was subjected to buffer exchange with 30 mM HEPES, 5% trehalose, pH 7.2, by using a Zeba spin column (Thermo scientific).
(§2) The thus purified sTfR or MF1 to MF7 were diluted with PBST (Phosphate Buffered Saline with Tween 20, TaKaRa), and the diluted solutions were prepared at 7 stages by 3-fold dilution from 600 ng/mL. […] Thereafter, the absorbance at 450 nm (ref. 620 nm) was measured using a plate reader.
Background: An ELISA detects its analyte on a solid surface through an enzyme-linked reagent.

Assay [2] relates to soluble wild-type TfR (sTfR) and TfR mutant fragments (MF1 to MF7). The assay is described as above. Also noted: species or system human. The following applies: TfR436 1 ug/mL; MF5 (positions 629, 630 and 633 substituted); FIG. 2. The method, then:
as §1, §2

Sequence of mouse TfR (Q62351 whole entry): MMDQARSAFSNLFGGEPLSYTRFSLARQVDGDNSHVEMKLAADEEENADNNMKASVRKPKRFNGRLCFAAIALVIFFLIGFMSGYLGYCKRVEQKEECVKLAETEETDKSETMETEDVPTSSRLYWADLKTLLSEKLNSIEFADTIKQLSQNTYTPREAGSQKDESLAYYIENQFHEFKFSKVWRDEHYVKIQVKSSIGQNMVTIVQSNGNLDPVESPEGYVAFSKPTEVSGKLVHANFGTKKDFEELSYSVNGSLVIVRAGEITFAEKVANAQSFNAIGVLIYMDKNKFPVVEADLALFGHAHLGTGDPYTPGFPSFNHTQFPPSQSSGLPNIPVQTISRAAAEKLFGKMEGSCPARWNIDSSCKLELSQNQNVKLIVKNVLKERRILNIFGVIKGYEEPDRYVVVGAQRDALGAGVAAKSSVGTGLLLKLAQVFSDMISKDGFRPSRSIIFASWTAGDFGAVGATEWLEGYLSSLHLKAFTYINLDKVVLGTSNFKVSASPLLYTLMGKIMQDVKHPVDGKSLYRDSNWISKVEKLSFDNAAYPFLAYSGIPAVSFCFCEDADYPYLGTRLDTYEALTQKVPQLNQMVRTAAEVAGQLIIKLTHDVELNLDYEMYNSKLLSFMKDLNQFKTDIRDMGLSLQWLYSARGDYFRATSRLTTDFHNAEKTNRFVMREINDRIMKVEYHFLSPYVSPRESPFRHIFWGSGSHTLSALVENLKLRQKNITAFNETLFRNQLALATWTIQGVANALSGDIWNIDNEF
T1 sequence (P02786 89-760, change not shown): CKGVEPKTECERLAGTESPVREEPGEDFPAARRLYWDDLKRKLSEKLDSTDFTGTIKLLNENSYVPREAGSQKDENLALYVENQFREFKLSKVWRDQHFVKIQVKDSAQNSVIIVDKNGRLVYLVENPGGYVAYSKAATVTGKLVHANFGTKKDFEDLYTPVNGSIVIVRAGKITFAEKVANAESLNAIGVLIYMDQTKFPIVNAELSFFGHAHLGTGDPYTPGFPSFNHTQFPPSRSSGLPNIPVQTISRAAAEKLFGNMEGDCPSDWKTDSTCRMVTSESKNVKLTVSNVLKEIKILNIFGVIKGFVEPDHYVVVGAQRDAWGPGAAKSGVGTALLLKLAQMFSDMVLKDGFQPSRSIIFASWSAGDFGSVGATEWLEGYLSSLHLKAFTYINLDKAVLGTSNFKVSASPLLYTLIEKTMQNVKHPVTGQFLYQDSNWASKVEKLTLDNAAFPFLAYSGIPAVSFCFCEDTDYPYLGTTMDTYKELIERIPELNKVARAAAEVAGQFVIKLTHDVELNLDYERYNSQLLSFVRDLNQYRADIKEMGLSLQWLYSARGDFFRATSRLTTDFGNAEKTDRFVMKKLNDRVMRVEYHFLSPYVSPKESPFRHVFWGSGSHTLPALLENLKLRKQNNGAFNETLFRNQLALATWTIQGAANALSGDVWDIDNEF

B1: TfR436: anti-human transferrin receptor antibody, VH SEQ ID NO: 7 and VL SEQ ID NO: 8, described in WO2014/073641; called PPMX-T003 in Tables 3 and 4 (antibody, listed as Homo sapiens, V domains shown)
VH: DVQLVQSGGGVVQPGRSLRLSCAASGFPFKSYGMHWVRQAPGKGLEWVAVISYDGSNKYYADSVKGRFTISRDNSKNTLYLQMNSLRGEDTAVYYCARDSNFWSGYYSPVDVWGQGTTVTVSS
VL: NFMLTQPHSVSESPGKTVTISCTRSSGSIASNSVQWYQQRPGSAPITVIYEDTQRPSGVPDRFSGSIDSSSNSASLTISGLQTEDEADYYCQSYDSAYHWVFGGGTKLAVL
The term GI50 denotes the concentration giving 50% growth inhibition. A high value points to lower sensitivity of the cells. As for B1, in the assay with mouse TfR, the “cross-reactivity with mouse TfR” value is “did not cross-react”. Further, the “growth of erythroblast cells” value in the assay with erythroblast cells (0.15 ng/mL to 10 μg/mL, 96 hours) is given as “suppressed the growth”. The molecule further showed a GI50 in the assay with erythroblast cells (96 hours culture) of 0.125 µg/mL. Besides, the epitope recognized result in assay [1] is “amino acids at positions 629 to 633 of TfR”. Besides, the “reactivity with TfR mutant fragment MF5” value in assay [2] is given as “a reduction in the reactivity”.
